According to patent US20210253679A1 (NATIONAL RESEARCH COUNCIL OF CANADA, published 2021):

Tests used:
human serum albumin [1] = target: T1, human serum albumin (human, UniProt P02768 25-609); assay: SPR, single-concentration injection over an HSA surface
T1 construct: also called HSA

human serum albumin [2] = target: T1, human serum albumin; assay: SPR, single cycle kinetics, pH 7.4
rhesus serum albumin [3] = target: T2, rhesus serum albumin (rhesus, UniProt Q28522 17-600); assay: SPR, single cycle kinetics, pH 7.4
T2 construct: also called RhSA

rat serum albumin [4] = target: T3, rat serum albumin (rat, UniProt P02770 25-608); assay: SPR, single cycle kinetics, pH 7.4
T3 construct: also called RSA

human serum albumin [5] = target: T1, human serum albumin; assay: SPR, single cycle kinetics, pH 5.5
rhesus serum albumin [6] = target: T2, rhesus serum albumin; assay: SPR, single cycle kinetics, pH 5.5
rat serum albumin [7] = target: T3, rat serum albumin; assay: SPR, single cycle kinetics, pH 5.5
human serum albumin [8] = target: T1, human serum albumin; assay: SPR, single cycle kinetics, pH 5.5; remark: listed apart in the source
rhesus serum albumin [9] = target: T2, rhesus serum albumin; assay: SPR, single cycle kinetics, pH 5.5; remark: listed apart in the source
rat serum albumin [10] = target: T3, rat serum albumin; assay: SPR, single cycle kinetics, pH 5.5; remark: listed apart in the source
human serum albumin [11] = target: T1, human serum albumin; assay: SPR, single cycle kinetics, pH 7.4; remark: listed apart in the source
rhesus serum albumin [12] = target: T2, rhesus serum albumin; assay: SPR, single cycle kinetics, pH 7.4; remark: listed apart in the source
mouse serum albumin = target: T4, mouse serum albumin (mouse, UniProt P07724 25-608); assay: SPR, single cycle kinetics, pH 7.4
T4 construct: also called MSA

rat serum albumin [13] = target: T3, rat serum albumin; assay: SPR, single cycle kinetics, pH 7.4; remark: listed apart in the source

T4 sequence (P07724 25-608 limits assumed): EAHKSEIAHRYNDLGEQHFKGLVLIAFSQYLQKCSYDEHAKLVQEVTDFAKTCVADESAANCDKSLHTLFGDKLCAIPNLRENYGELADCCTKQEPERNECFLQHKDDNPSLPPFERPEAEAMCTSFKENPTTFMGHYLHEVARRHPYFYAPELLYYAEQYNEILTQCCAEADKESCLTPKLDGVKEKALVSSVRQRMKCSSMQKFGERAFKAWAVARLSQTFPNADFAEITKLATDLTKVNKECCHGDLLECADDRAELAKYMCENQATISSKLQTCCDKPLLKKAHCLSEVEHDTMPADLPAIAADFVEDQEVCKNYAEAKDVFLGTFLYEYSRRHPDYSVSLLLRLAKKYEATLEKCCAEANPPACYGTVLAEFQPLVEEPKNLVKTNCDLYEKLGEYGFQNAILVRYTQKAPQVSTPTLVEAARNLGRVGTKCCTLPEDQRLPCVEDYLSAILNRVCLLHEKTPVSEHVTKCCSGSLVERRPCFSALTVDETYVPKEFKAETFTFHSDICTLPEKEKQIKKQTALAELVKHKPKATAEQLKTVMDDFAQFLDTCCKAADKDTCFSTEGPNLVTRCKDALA

B1: B39-M79 (bispecific antibody, not shown: small tags and cut ends)
chain: QVQLVESGGGLVQAGGSLRLSCAASGLTFSRYVMGWFRQAPGKEREFVAAITWGGTPNYADSVKGRFTISRDNSKNTQYLQMNSLKPEDTAVYYCAAGLGWDSRYSQSYNYWGQGTQVTVSSGGGGSGGGGSGGGGSGGGGSGGGGSQVKLEESGGGLVQAGGSLKLSCAASGSTFSSSSVGWYRQAPGQQRELVAAITSGGSTNTADSVKGRFTMSRDNAKNTVYLQMRDLKPEDTAVYYCNVAGRNWVPISRYSPGPYWGQGTQVTVSS
- binding result (human serum albumin [1]): binds

B2: B39-M75 (bispecific antibody, not shown: small tags and cut ends)
chain: QVQLVESGGGLVQAGGSLRLSCAASGLTFSRYVMGWFRQAPGKEREFVAAITWGGTPNYADSVKGRFTISRDNSKNTQYLQMNSLKPEDTAVYYCAAGLGWDSRYSQSYNYWGQGTQVTVSSGGGGSGGGGSGGGGSGGGGSGGGGSQVQLVESGGGFVQAGGSLRLSCAASGRTFDNYVMAWFRQAPGKEREFVASISGSGSITNYANSVKDRFTISRDSAKNAIYLQMNSLKPEDTALYYCAAGSRRTYYREPKFYPSWGQGTQVTVSS
- binding result (human serum albumin [1]): binds

B3: R28 sdAb (VHH)
VHH: QVQLVESGGGLVQAGGSLRLSCVASGRTFIAYAMGWFRQAPGKEREFVAAITNFAGGTTYYADSVKGRFTISRDNAKTTVYLQMNSLKPEDTALYYCAADRSAQTMRQVRPVLPYWGQGTQVTVSS
notes: also called R28 VHH
- Kd (human serum albumin [2]): 0.0121 µM
- Kd (rhesus serum albumin [3]): 0.0382 µM
- Kd (rat serum albumin [4]): 0.0004 µM
- Kd (human serum albumin [5]): 0.0018 µM
- Kd (rhesus serum albumin [6]): 0.006 µM
- Kd (rat serum albumin [7]): 0.0003 µM
- Kd (human serum albumin [8]): 0.0018 µM
- Kd (rhesus serum albumin [9]): 0.0059 µM
- Kd (rat serum albumin [10]): 0.0003 µM
- Kd (human serum albumin [11]): 0.012 µM
- Kd (rhesus serum albumin [12]): 0.038 µM
- Kd (mouse serum albumin): 0.16 µM
- Kd (rat serum albumin [13]): 0.0004 µM

B4: B39 (VHH, not shown: small tags and cut ends)
VHH: QVQLVESGGGLVQAGGSLRLSCAASGLTFSRYVMGWFRQAPGKEREFVAAITWGGTPNYADSVKGRFTISRDNSKNTQYLQMNSLKPEDTAVYYCAAGLGWDSRYSQSYNYWGQGTQVTVSS
notes: also called B39-HA-His6; B39 control
- binding result (human serum albumin [1]): no binding (tested: not printed (single concentration))

B5: Rh46 sdAb (VHH)
VHH: QVKLEESGGGLVQAGGSLRLSCTASTRTFSSYIMGWFRQAPGKERELVAAISWSGRMTHYADSVKGRFAISRDNAKNTVYLQMNVLKPEDTAIYSCAADRTTAWGAPRSQYDSWGQGTQVTVSS
notes: also called Rh46 VHH
- Kd (human serum albumin [2]): 0.0801 µM
- Kd (rhesus serum albumin [3]): 0.0808 µM
- binding result (rat serum albumin [4]): no binding
- Kd (human serum albumin [5]): 0.041 µM
- Kd (rhesus serum albumin [6]): 0.03 µM
- Kd (human serum albumin [8]): 0.0413 µM
- Kd (rhesus serum albumin [9]): 0.0296 µM
- Kd (human serum albumin [11]): 0.08 µM
- Kd (rhesus serum albumin [12]): 0.081 µM

B6: B39-R11 (bispecific antibody, not shown: small tags and cut ends)
chain: QVQLVESGGGLVQAGGSLRLSCAASGLTFSRYVMGWFRQAPGKEREFVAAITWGGTPNYADSVKGRFTISRDNSKNTQYLQMNSLKPEDTAVYYCAAGLGWDSRYSQSYNYWGQGTQVTVSSGGGGSGGGGSGGGGSGGGGSGGGGSQVKLEESGGGLVQAGGSLRLSCVGPGFLLRSNTMGWYRQAPGKERELVAFIRPSGLTNYNDAVQGRFTISRDNAKNTVYLQMNALKPEDTAVYYCHTRPPFQRDSWGQGTQVTVSS
- binding result (human serum albumin [1]): binds

B7: B39-R28 (bispecific antibody, not shown: small tags and cut ends)
chain: QVQLVESGGGLVQAGGSLRLSCAASGLTFSRYVMGWFRQAPGKEREFVAAITWGGTPNYADSVKGRFTISRDNSKNTQYLQMNSLKPEDTAVYYCAAGLGWDSRYSQSYNYWGQGTQVTVSSGGGGSGGGGSGGGGSGGGGSGGGGSQVQLVESGGGLVQAGGSLRLSCVASGRTFIAYAMGWFRQAPGKEREFVAAITNFAGGTTYYADSVKGRFTISRDNAKTTVYLQMNSLKPEDTALYYCAADRSAQTMRQVRPVLPYWGQGTQVTVSS
- binding result (human serum albumin [1]): binds
